How the values were obtained:
[1] = target: T1, SARS-CoV-2 Spike RBD (original) (SARS-CoV-2 (original), UniProt P0DTC2 319-541); assay: EMSA
[2] = target: T1, SARS-CoV-2 Spike RBD (original); assay: ELONA; 25 C

| Binder | binding result [1] | Kd [2] [nM] |
| --- | --- | --- |
| ACUUGGCCAUUUUUCUUUUUCUUUUUCUUUUUCUGCAGGGCCAAGUG (ssRNA) [NC-RNA apt] | no binding |  |
| ACUUGGCCACGUCGACUGAAAUCCUCUUCCUGCAGGGCCAAGUG (structured_RNA) [#2-1-18] |  | 16.8 |
| ACUUGGCCACGUCGACUGAAAUCCUCUUCCUGCAGGGCCAAGUG (structured_RNA, 2'-F at pyrimidines, 2'-O-methyl at purines) [#2-1-18-2'-F-O] | binds |  |
| ACUUGGCCAAUUACCGUAGUUUUUGUAGUCUGCAGGGCCAAGUG (structured_RNA) [#5-2-15] |  | 24.7 |
| ACUUGGCCAAUUACCGUAGUUUUUGUAGUCUGCAGGGCCAAGUG (structured_RNA, 2'-F at pyrimidines, 2'-O-methyl at purines) [#5-2-15-2'-F-O] | binds |  |
